Data set [1] in a line: Zeta potential analysis (Litesizer 500). It counts as physicochemical. The procedure:
(§1) Encapsulation studies-Winterized Soybean oil (Archer Daniel Midlands, Chicago, IL) 50 μL was added to 2 mg of dry peptide and vortexed for 2 min. Deionized distilled-reverse osmosis (DDI-RO) water was added to a final volume of 1 mL. This mixture was sonicated (bath sonicator) for 15 min at 37° C. The generated CAPC are maintained at RT for at least 1 h prior to confocal microscopy. For the solvent/oil encapsulation study reagent grade-Benzene (Sigma-Aldrich, St. Louis, MO), Cyclohexane (Acros Organics, Geel, Belgium), n-Decane (grade 99+%, Sigma-Aldrich, St. Louis), Migloyl® 812N; capric triglyceride (Pharma Grade, IOI Oleo GmbH, Witten, Germany), and Mineral oil paraffin (USP, Thermo-Fisher Scientific, Waltham, MA) and Winterized Soy oil (Archer Daniel Midlands, Chicago, IL) were used. […] prepared using 50 μL of the solvent/oil along with 480 μL of DDI-RO water were sonicated for 15 min. CAPC, 2 mg, was subsequently added and sonicated for 10 min. These samples were measured 24 h thereafter for their size, Zeta potential and their circular dichroism (CD) spectra recorded. Particle size/Zeta potential-The samples were analyzed using a LitesizerTM 500 Particle Size Analyzer (Anton Paar GmbH, Graz, Austria) using an Omega Cuvette at 25° C. The size distribution of the particles was analyzed with the proprietary KalliopeTM v.2.16 software (Anton Paar GmbH, Graz, Austria) using the intensity-weighing model. For the Zeta potential analysis, the suspension used above was diluted to 5-fold in DDI-RO prior to analysis.

The nature of data set [2]: Particle size and polydispersity by dynamic light scattering (Litesizer 500). As to conditions: for Hydrodynamic Diameter / Polydispersity: colloids produced by the amphipathic sequence in soy oil. The class given is physicochemical. How it is done:
as §1

Setting [3] is: colloids produced by the amphipathic sequence in soy oil.

This is an account of results in patent US20250339382A1, “CORRALLING AMPHIPATHIC PEPTIDE COLLOIDS” (KANSAS STATE UNIVERSITY RESEARCH FOUNDATION, priority 2022, published 2025).

No end group written: not given here. *: point of attachment. methylmercury = [CH3][Hg]*

In the case of “5(6)-Ac-FLIVI-KKKKK- C-CF (Ac-FLIVIKKKKKC; also: 5(6)-carboxyfluorescein label (C-CF), attachment not given here)”, in data set [1] (setting [3]), the “Zeta Potential” value was 25 ± 2.7 mV. Further, in data set [2], the “Hydrodynamic Diameter” value worked out at 766 ± 225.0 nm and the Polydispersity stood at 21 ± 4.8%.
Consider “Ac-FAAAA-KKKKK-CONH2 (Ac-FAAAAKKKKK-NH2) [oligo-alanine peptide]”, for which, in data set [1] (setting [3]), the “Zeta Potential” value is reported as 10.2 mV. Besides, in data set [2], the “Hydrodynamic Diameter” value is listed as 681 nm and the Polydispersity is 500%.
In the case of “Ac-FLIVI-KKKKK-C-Me-Hg (Ac-FLIVIKKKKKC(methylmercury))”, in data set [1] (setting [3]), the “Zeta Potential” value turned out to be 33 ± 4.0 mV. Moreover, in data set [2], the “Hydrodynamic Diameter” value is listed as 578 ± 96.0 nm and the Polydispersity is listed as 25 ± 5.8%.
For the substance “Ac-FLIVI-KKKKK-CO-NH2 (Ac-FLIVIKKKKK-NH2) [Ac-FLIVI-KKKKK-CONH2]”, the “Zeta Potential” value in data set [1] (setting [3]) was 38 mV. Moreover, the Zeta Potential in data set [1] (peptide complexed with soy oil droplets) stood at 44.8 mV. Moreover, in data set [2], the “Hydrodynamic Diameter” value is listed as 560 nm and the Polydispersity stood at 20%. For the same substance, the “average (mean) diameter” value in data set [2] (peptide complexed with soy oil droplets, DLS intensity peak) stood at 465 nm.
As to “Ac-FLIVIGSII-KKKKK-CONH2 (Ac-FLIVIGSIIKKKKK-NH2) [Ac-FLIVIGSII-KKKKKCONH2]”, the “Zeta Potential” value in data set [1] (setting [3]) is reported as 21 mV. Further, in data set [2], the “Hydrodynamic Diameter” value came out at 300 nm and the Polydispersity is listed as 23%.
On to “Ac-FLLLL-KKKKK-CONH2 (Ac-FLLLLKKKKK-NH2)”, for which, in data set [1] (setting [3]), the “Zeta Potential” value was −0.6 mV. Moreover, in data set [2], the “Hydrodynamic Diameter” value was determined as 666 nm and the Polydispersity was found to be 200%.
Turning to “Ac-IVFLI-KKKKK-CONH2 (Ac-IVFLIKKKKK-NH2)”, in data set [1] (setting [3]), the “Zeta Potential” value was found to be 25 mV. In data set [2], the “Hydrodynamic Diameter” value amounted to 594 nm and the Polydispersity is recorded as 25%.
